The values that follow come from paper doi:10.1101/541805.

The assay has as its target rat Kv2.2-GFP (rat) (UniProt Q63099).

With “GxTX-594 (guangxitoxin-1E Ser13Cys, Met35 norleucine, conjugated to Alexa 594) (from UniProt P84835 1-36) (peptide)”, the Pearson correlation coefficient (colocalization with GFP) amounted to 0.8.
